Test results as given in US20210380703A1 (RIGEL PHARMACEUTICALS, published 2021).
Where a chain is given by its changes, count along the chain named.

B1: 373_H03 (antibody, V domains shown)
VH: EVQLLESGGGLVQPGGSLRLSCAASGFTFSSYSMNWVRQAPGKGLEWVSGINYNSGYKSYADSVKGRFTISRDNSKNTLYLQMNSLRAEDTAVYYCARGANWHDTALDYWGQGTLVTVSS
VL: DIQMTQSPSSLSASVGDRVTITCRASQSILSYLNWYQQKPGKAPKLLIYATTSRASGVPSRFSGSGSGTDFTLTISSLQPEDFATYYCQQSYENPLTFGGGTKVEIK
notes: Group III
B2: 374_A09 (antibody, V domains shown)
VH: B1 VH with G50S, S55G, S59G, A106H
VL: B1 VL with S31T, L33V, T51A, R54L, E93D, N94S
notes: Group III
B3: 374_B05 (antibody, V domains shown)
VH: B1 VH with S30D, K58T
VL: B1 VL with L30V, T51A, A55H, N94S
notes: Group III
B4: 374_A06 (antibody, V domains shown)
VH: B1 VH with G50S, K58T, A106H
VL: B1 VL with L47V, T51A, E93D, N94S
notes: Group III
B5: 374_B03 (antibody, V domains shown)
VH: B1 VH with S30D, S55G, K58T
VL: B1 VL with S31T, L47V, T51A, E93D, N94S
notes: Group III
B6: 375_A07 (antibody, V domains shown)
VH: B1 VH with S30D, G50S, K58T, S59G, A106H
VL: B1 VL with S31T, T51A, E93D, N94T
notes: Group III
B7: 374_G11 (antibody, V domains shown)
VH: B1 VH with S31D, S55G, K58T
VL: B1 VL with L30I, L33V, L47V, T51A, R54L, E93D, N94S
notes: Group III
B8: 374_E12 (antibody, V domains shown)
VH: B1 VH with S55G
VL: B1 VL with L47V, T51A, E93D
notes: Group III
B9: 374_C09 (antibody, V domains shown)
VH: B1 VH with S30D, S33G, G50S, S55G, S59G, A106H
VL: B1 VL with L30V, L47V, T51A, N94L
notes: Group III
B10: 374_C12 (antibody, V domains shown)
VH: B1 VH with S49A, S55G
VL: B1 VL with S31T, L47V, T51A, Y92D, E93N, N94S
notes: Group III
B11: 374_F08 (antibody, V domains shown)
VH: B1 VH with S30D, S55G
VL: B1 VL with S31T, L33V, L47V, T51V, E93D, N94T
notes: Group III
B12: 375_A12 (antibody, V domains shown)
VH: B1 VH
VL: B1 VL with L47V, T51V, N94T
notes: Group III
B13: 374_G03 (antibody, V domains shown)
VH: B1 VH with S31D, S55G, K58T
VL: B1 VL with L30S, L47V, T51A, Y92D, E93D, N94T
notes: Group III
B14: 374_C01 (antibody, V domains shown)
VH: B1 VH with S30D, S33G
VL: B1 VL with S31T, T51A, N94T
notes: Group III
B15: 374_F06 (antibody, V domains shown)
VH: B1 VH with S55G, K58T
VL: B1 VL with L30I, L33V, L47V, T51A, R54L, A55H, E93S, N94T
notes: Group III
B16: 375_A01 (antibody, V domains shown)
VH: B1 VH with S30D, S49A, S55G, K58T
VL: B1 VL with L47V, T51A, E93N, N94T
notes: Group III
B17: 374_D03 (antibody, V domains shown)
VH: B1 VH with S30D, S49A, S55G, A106H
VL: B1 VL with L30V, S31T, T51A, E93D, N94T
notes: Group III
B18: 375_C04 (antibody, V domains shown)
VH: B1 VH with S31D, S49A, S55G, K58T
VL: B1 VL with S31T, L47V, T51A, N94S
notes: Group III
B19: 375_D01 (antibody, V domains shown)
VH: B1 VH with S55G, K58T, S59G
VL: B1 VL with S31T, L47V, T51A, N94T
notes: Group III
B20: 373_H09 (antibody, V domains shown)
VH: B1 VH with S33G, S49A, G50S, A106H
VL: B1 VL with L30I, S31T, L47V, T51A, Y92D, E93D, N94S
notes: Group III
B21: 374_D07 (antibody, V domains shown)
VH: B1 VH with S30D
VL: B1 VL with L30V, L47V, T51A, R54L, E93N, N94S
notes: Group III
B22: 374_B08 (antibody, V domains shown)
VH: B1 VH with S30D, S49A, S55G, K58T
VL: B1 VL with L30V, L33V, T51A, A55H, N94L
notes: Group III
B23: 375_B12 (antibody, V domains shown)
VH: B1 VH with S30D, S49A, S55G
VL: B1 VL with L30V, S31T, T51A, E93D, N94T
notes: Group III
B24: 374_E10 (antibody, V domains shown)
VH: B1 VH with S55G
VL: B1 VL with T51A, A55H, E93D, N94S
notes: Group III
B25: 374_G08 (antibody, V domains shown)
VH: B1 VH with S30D, S55G, K58T
VL: B1 VL with S31T, L33V, L47V, T51A, E93D, N94S
notes: Group III
B26: 374_G10 (antibody, V domains shown)
VH: B1 VH with G50S, K58T, A106H
VL: B1 VL with L30V, L47V, T51V, E93D, N94S
notes: Group III
B27: 374_F07 (antibody, V domains shown)
VH: B1 VH with S30D, S49A, G50S, S55G, K58T, S59G, A106H
VL: B1 VL with L47V, T51V, R54L, N94S
notes: Group III
B28: 374_D10 (antibody, V domains shown)
VH: B1 VH with S33G, N35H, S49A, G50S, S55G, K58T, A106H
VL: B1 VL with S31T, L33V, T51A, E93D
notes: Group III
B29: 374_G09 (antibody, V domains shown)
VH: B1 VH with S49A, S55G, S59G, A106H
VL: B1 VL with L30V, S31R, L47V, T51A, R54L, N94L
notes: Group III
B30: 374_D05 (antibody, V domains shown)
VH: B1 VH with S30D, K58T, S59G, A106H
VL: B1 VL with S31T, T51A, E93D, N94T
notes: Group III
B31: 374_H01 (antibody, V domains shown)
VH: B1 VH with S30D, S49A, S55G, K58T, A106H
VL: B1 VL with L47V, T51A, R54L
notes: Group III
B32: 374_B10 (antibody, V domains shown)
VH: B1 VH with G50S, K58T, A106H
VL: B1 VL with S31T, L33V, L47V, T51A, R54L, E93D, N94T
notes: Group III
B33: 375_A08 (antibody, V domains shown)
VH: B1 VH with S49A, S55G, K58T, S59G
VL: B1 VL with L30V, S31T, T51A, N94S
notes: Group III
B34: 373_H07 (antibody, V domains shown)
VH: B1 VH with S49A, S55G, K58T, A106H
VL: B1 VL with L30V, S31T, T51A, T52S, R54L, A55Q, E93D, N94S
notes: Group III
B35: 374_D06 (antibody, V domains shown)
VH: B1 VH with S55G, K58T
VL: B1 VL with L33V, L47V, T51A, E93D, N94S
notes: Group III
B36: 374_H11 (antibody, V domains shown)
VH: B1 VH with S55G, K58T
VL: B1 VL with L30I, L33V, L47V, T51A, R54L, A55H, E93S
notes: Group III

Tests used:
[1] = target: T1, human ACVR2A (human, UniProt P27037 20-135, limits assumed); experiment: ELISA
T1 construct: coated antigen of the initial ELISA; also called activin receptor, type II A
T1 sequence (P27037 20-135 limits assumed): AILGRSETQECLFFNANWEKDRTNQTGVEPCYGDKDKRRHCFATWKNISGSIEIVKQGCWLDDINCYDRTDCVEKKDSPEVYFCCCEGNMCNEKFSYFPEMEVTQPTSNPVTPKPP
Outline: (§1)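 Binding signal was read by ELISA after ACVR2A-specific monoclonal antibodies were tested against human ACVR2A and mouse ACVR2A, with human Fc as the negative control.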

[2] = target: T2, mouse ACVR2A (mouse, UniProt P27038 20-135, limits assumed); experiment: ELISA
T2 construct: coated antigen of the initial ELISA
T2 sequence (P27038 20-135 limits assumed): as the sequence (P27037 20-135 limits assumed) above, with K20R, V73I counted along it
Outline: as §1

[3] = target: T3, biotinylated goat anti-human kappa light chain; experiment: ELISA, positive control
T3 construct: positive control of the ELISA
Outline: as §1
Further: test concentration or dose not given here.

Row | Binder | optical density [1] [OD] | optical density [2] [OD] | optical density [3] [OD]
1 | B1 | 3.27 | 3.29 | 3.22
2 | B2 | 3.58 | 3.64 | 2.97
3 | B3 | 3.68 | 3.65 | 3.16
4 | B4 | 3.77 | 3.75 | 3
5 | B5 | 3.69 | 3.7 | 3.07
6 | B6 | 3.58 | 3.64 | 3.11
7 | B7 | 3.65 | 3.6 | 3.25
8 | B8 | 3.61 | 3.28 | 3.29
9 | B9 | 3.43 | 3.51 | 3.14
10 | B10 | 3.67 | 3.33 | 3.15
11 | B11 | 3.67 | 3.68 | 3.18
12 | B12 | 3.66 | 3.35 | 3.14
13 | B13 | 3.79 | 3.64 | 3.22
14 | B14 | 2.69 | 2.93 | 3.08
15 | B15 | 3.72 | 3.7 | 3.18
16 | B16 | 3.28 | 3.68 | 2.91
17 | B17 | 3.3 | 3.48 | 3.02
18 | B18 | 3.68 | 3.67 | 3.21

Row | Binder | optical density [1] [OD] | optical density [2] [OD] | optical density [3] [OD]
19 | B19 | 3.3 | 3.61 | 3.1
20 | B20 | 0.93 | 1.35 | 3.08
21 | B21 | 3.71 | 3.68 | 3.26
22 | B22 | 3.6 | 3.63 | 3.12
23 | B23 | 3.65 | 3.34 | 3.28
24 | B24 | 3.74 | 3.77 | 3.38
25 | B25 | 3.71 | 3.7 | 3.21
26 | B26 | 3.68 | 3.74 | 3.23
27 | B27 | 3.47 | 3.54 | 3.21
28 | B28 | 3.56 | 3.64 | 3.27
29 | B29 | 3.66 | 3.6 | 3.26
30 | B30 | 3.43 | 3.56 | 3.15
31 | B31 | 3.08 | 3.26 | 3.07
32 | B32 | 3.71 | 3.69 | 3
33 | B33 | 3.68 | 3.69 | 3.14
34 | B34 | 3.25 | 3.27 | 3.23
35 | B35 | 3.78 | 3.67 | 3.12
36 | B36 | 3.27 | 3.29 | 3.15
